Measured values published in IntAct's records for PubMed 36931259.

B1: 14-3-3 protein sigma (Homo sapiens), P31947 (parent)
chain: MERASLIQKAKLAEQAERYEDMAAFMKGAVEKGEELSCEERNLLSVAYKNVVGGQRAAWRVLSSIEQKSNEEGSEEKGPEVREYREKVETELQGVCDTVLGLLDSHLIKEAGDAESRVFYLKMKGDYYRYLAEVATGDDKKRIIDSARSAYQEAMDISKKEMPPTNPIRLGLALNFSVFHYEIANSPEEAISLAKTTFDEAMADLHTLSEDSYKDSTLIMQLLRDNLTLWTADNAGEEGGEAPQEPQS

Variants of: B1
Settings: with kkcc1_human CAMKK1, Q8N5S9
Sequence of kkcc1_human CAMKK1, Q8N5S9 (Q8N5S9 whole entry, looked up): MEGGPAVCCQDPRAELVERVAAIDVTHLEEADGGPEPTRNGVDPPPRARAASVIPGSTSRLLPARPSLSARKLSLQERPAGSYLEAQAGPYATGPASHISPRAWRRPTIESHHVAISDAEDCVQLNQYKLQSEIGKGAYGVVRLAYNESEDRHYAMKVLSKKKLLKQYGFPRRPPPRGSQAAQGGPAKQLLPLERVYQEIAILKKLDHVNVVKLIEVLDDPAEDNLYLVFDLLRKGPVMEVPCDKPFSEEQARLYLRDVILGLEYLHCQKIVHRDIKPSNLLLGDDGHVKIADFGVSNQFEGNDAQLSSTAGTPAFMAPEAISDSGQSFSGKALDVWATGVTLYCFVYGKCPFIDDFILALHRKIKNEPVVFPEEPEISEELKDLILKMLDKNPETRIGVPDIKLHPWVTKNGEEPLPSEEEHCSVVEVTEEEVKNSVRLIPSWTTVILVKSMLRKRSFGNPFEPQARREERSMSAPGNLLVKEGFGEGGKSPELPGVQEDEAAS

Row | effect of a mutation on the interaction | Variant
1 | decreasing interaction strength | MERASLIQKAKLAEQAERYEDMAAFMKGAVEKGEELSCEERNLLSVAYENVVGGQEAAWRVLSSIEQKSNEEGSEEKGPEVREYREKVETELQGVCDTVLGLLDSHLIKEAGDAESRVFYLKMKGDYYRYLAEVATGDDKKRIIDSARSAYQEAMDISKKEMPPTNPIRLGLALNFSDFHYEIANSPEEAISLAKTTFDEAMADLHTLSEDSYKDSTLIMQLLRDNLTLWTADNAGEEGGEAPQEPQS [K49E;R56E;V178D]

Variants of: B1
Settings: with tesk1_human TESK1, Q15569

Row | effect of a mutation on the interaction | Variant
2 | decreasing interaction strength | MERASLIQKAKLAEQAERYEDMAAFMKGAVEKGEELSCEERNLLSVAYENVVGGQEAAWRVLSSIEQKSNEEGSEEKGPEVREYREKVETELQGVCDTVLGLLDSHLIKEAGDAESRVFYLKMKGDYYRYLAEVATGDDKKRIIDSARSAYQEAMDISKKEMPPTNPIRLGLALNFSDFHYEIANSPEEAISLAKTTFDEAMADLHTLSEDSYKDSTLIMQLLRDNLTLWTADNAGEEGGEAPQEPQS [K49E;R56E;V178D]

Variants of: B1
Settings: with ilk_human ILK

Row | effect of a mutation on the interaction | Variant
3 | decreasing interaction strength | MERASLIQKAKLAEQAERYEDMAAFMKGAVEKGEELSCEERNLLSVAYENVVGGQEAAWRVLSSIEQKSNEEGSEEKGPEVREYREKVETELQGVCDTVLGLLDSHLIKEAGDAESRVFYLKMKGDYYRYLAEVATGDDKKRIIDSARSAYQEAMDISKKEMPPTNPIRLGLALNFSDFHYEIANSPEEAISLAKTTFDEAMADLHTLSEDSYKDSTLIMQLLRDNLTLWTADNAGEEGGEAPQEPQS [K49E;R56E;V178D]

Variants of: B1
Settings: with srpk3_human SRPK3, Q9UPE1
Sequence of srpk3_human SRPK3, Q9UPE1 (Q9UPE1 whole entry): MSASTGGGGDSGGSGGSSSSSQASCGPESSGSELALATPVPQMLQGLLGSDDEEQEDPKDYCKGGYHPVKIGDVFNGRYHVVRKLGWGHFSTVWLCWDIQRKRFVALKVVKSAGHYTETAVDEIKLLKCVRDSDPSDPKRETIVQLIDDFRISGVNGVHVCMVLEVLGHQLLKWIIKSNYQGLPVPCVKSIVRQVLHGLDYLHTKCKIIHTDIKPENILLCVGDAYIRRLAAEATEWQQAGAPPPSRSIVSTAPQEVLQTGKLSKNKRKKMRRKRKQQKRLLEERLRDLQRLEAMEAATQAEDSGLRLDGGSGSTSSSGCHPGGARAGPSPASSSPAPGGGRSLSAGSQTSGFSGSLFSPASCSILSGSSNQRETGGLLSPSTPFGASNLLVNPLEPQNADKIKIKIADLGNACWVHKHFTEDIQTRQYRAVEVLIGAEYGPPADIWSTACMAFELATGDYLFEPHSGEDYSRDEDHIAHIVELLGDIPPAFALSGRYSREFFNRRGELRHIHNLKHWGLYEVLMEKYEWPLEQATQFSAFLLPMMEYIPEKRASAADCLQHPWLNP

Row | effect of a mutation on the interaction | Variant
4 | decreasing interaction strength | MERASLIQKAKLAEQAERYEDMAAFMKGAVEKGEELSCEERNLLSVAYENVVGGQEAAWRVLSSIEQKSNEEGSEEKGPEVREYREKVETELQGVCDTVLGLLDSHLIKEAGDAESRVFYLKMKGDYYRYLAEVATGDDKKRIIDSARSAYQEAMDISKKEMPPTNPIRLGLALNFSDFHYEIANSPEEAISLAKTTFDEAMADLHTLSEDSYKDSTLIMQLLRDNLTLWTADNAGEEGGEAPQEPQS [K49E;R56E;V178D]

Variants of: B1
Settings: with btk_human BTK

Row | effect of a mutation on the interaction | Variant
5 | decreasing interaction strength | MERASLIQKAKLAEQAERYEDMAAFMKGAVEKGEELSCEERNLLSVAYENVVGGQEAAWRVLSSIEQKSNEEGSEEKGPEVREYREKVETELQGVCDTVLGLLDSHLIKEAGDAESRVFYLKMKGDYYRYLAEVATGDDKKRIIDSARSAYQEAMDISKKEMPPTNPIRLGLALNFSDFHYEIANSPEEAISLAKTTFDEAMADLHTLSEDSYKDSTLIMQLLRDNLTLWTADNAGEEGGEAPQEPQS [K49E;R56E;V178D]

Variants of: B1
Settings: with kpce_human PRKCE

Row | effect of a mutation on the interaction | Variant
6 | decreasing interaction strength | MERASLIQKAKLAEQAERYEDMAAFMKGAVEKGEELSCEERNLLSVAYENVVGGQEAAWRVLSSIEQKSNEEGSEEKGPEVREYREKVETELQGVCDTVLGLLDSHLIKEAGDAESRVFYLKMKGDYYRYLAEVATGDDKKRIIDSARSAYQEAMDISKKEMPPTNPIRLGLALNFSDFHYEIANSPEEAISLAKTTFDEAMADLHTLSEDSYKDSTLIMQLLRDNLTLWTADNAGEEGGEAPQEPQS [K49E;R56E;V178D]

Variants of: B1
Settings: with plk2_human PLK2, Q9NYY3
Sequence of plk2_human PLK2, Q9NYY3 (Q9NYY3 whole entry, looked up): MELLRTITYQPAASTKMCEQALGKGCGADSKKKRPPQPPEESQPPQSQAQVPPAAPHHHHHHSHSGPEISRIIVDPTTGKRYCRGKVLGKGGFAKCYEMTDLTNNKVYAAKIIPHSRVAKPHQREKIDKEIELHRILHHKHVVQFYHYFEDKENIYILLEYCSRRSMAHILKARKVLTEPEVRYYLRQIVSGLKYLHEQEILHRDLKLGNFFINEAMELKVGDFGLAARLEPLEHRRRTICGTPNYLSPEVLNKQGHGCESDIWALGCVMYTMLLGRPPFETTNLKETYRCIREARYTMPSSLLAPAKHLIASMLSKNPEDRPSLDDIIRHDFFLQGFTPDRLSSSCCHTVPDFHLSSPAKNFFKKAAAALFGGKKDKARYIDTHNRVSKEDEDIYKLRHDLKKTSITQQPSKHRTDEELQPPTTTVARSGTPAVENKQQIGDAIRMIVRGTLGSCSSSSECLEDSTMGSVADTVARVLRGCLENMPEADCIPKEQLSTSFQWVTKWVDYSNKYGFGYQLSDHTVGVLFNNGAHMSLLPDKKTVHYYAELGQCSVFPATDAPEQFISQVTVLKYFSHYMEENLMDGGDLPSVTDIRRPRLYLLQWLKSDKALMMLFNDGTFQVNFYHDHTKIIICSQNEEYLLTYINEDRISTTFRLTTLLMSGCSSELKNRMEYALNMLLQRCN

Row | effect of a mutation on the interaction | Variant
7 | decreasing interaction strength | MERASLIQKAKLAEQAERYEDMAAFMKGAVEKGEELSCEERNLLSVAYENVVGGQEAAWRVLSSIEQKSNEEGSEEKGPEVREYREKVETELQGVCDTVLGLLDSHLIKEAGDAESRVFYLKMKGDYYRYLAEVATGDDKKRIIDSARSAYQEAMDISKKEMPPTNPIRLGLALNFSDFHYEIANSPEEAISLAKTTFDEAMADLHTLSEDSYKDSTLIMQLLRDNLTLWTADNAGEEGGEAPQEPQS [K49E;R56E;V178D]

Variants of: B1
Settings: with st32c_human STK32C

Row | effect of a mutation on the interaction | Variant
8 | decreasing interaction strength | MERASLIQKAKLAEQAERYEDMAAFMKGAVEKGEELSCEERNLLSVAYENVVGGQEAAWRVLSSIEQKSNEEGSEEKGPEVREYREKVETELQGVCDTVLGLLDSHLIKEAGDAESRVFYLKMKGDYYRYLAEVATGDDKKRIIDSARSAYQEAMDISKKEMPPTNPIRLGLALNFSDFHYEIANSPEEAISLAKTTFDEAMADLHTLSEDSYKDSTLIMQLLRDNLTLWTADNAGEEGGEAPQEPQS [K49E;R56E;V178D]

Variants of: B1
Settings: with mylk2_human MYLK2, Q9H1R3

Row | effect of a mutation on the interaction | Variant
9 | decreasing interaction strength | MERASLIQKAKLAEQAERYEDMAAFMKGAVEKGEELSCEERNLLSVAYENVVGGQEAAWRVLSSIEQKSNEEGSEEKGPEVREYREKVETELQGVCDTVLGLLDSHLIKEAGDAESRVFYLKMKGDYYRYLAEVATGDDKKRIIDSARSAYQEAMDISKKEMPPTNPIRLGLALNFSDFHYEIANSPEEAISLAKTTFDEAMADLHTLSEDSYKDSTLIMQLLRDNLTLWTADNAGEEGGEAPQEPQS [K49E;R56E;V178D]

Variants of: B1
Settings: with ripk2_human RIPK2, O43353

Row | effect of a mutation on the interaction | Variant
10 | decreasing interaction strength | MERASLIQKAKLAEQAERYEDMAAFMKGAVEKGEELSCEERNLLSVAYENVVGGQEAAWRVLSSIEQKSNEEGSEEKGPEVREYREKVETELQGVCDTVLGLLDSHLIKEAGDAESRVFYLKMKGDYYRYLAEVATGDDKKRIIDSARSAYQEAMDISKKEMPPTNPIRLGLALNFSDFHYEIANSPEEAISLAKTTFDEAMADLHTLSEDSYKDSTLIMQLLRDNLTLWTADNAGEEGGEAPQEPQS [K49E;R56E;V178D]

Variants of: B1
Settings: with m4k4_human MAP4K4, O95819
Sequence of m4k4_human MAP4K4, O95819 (O95819 whole entry, looked up): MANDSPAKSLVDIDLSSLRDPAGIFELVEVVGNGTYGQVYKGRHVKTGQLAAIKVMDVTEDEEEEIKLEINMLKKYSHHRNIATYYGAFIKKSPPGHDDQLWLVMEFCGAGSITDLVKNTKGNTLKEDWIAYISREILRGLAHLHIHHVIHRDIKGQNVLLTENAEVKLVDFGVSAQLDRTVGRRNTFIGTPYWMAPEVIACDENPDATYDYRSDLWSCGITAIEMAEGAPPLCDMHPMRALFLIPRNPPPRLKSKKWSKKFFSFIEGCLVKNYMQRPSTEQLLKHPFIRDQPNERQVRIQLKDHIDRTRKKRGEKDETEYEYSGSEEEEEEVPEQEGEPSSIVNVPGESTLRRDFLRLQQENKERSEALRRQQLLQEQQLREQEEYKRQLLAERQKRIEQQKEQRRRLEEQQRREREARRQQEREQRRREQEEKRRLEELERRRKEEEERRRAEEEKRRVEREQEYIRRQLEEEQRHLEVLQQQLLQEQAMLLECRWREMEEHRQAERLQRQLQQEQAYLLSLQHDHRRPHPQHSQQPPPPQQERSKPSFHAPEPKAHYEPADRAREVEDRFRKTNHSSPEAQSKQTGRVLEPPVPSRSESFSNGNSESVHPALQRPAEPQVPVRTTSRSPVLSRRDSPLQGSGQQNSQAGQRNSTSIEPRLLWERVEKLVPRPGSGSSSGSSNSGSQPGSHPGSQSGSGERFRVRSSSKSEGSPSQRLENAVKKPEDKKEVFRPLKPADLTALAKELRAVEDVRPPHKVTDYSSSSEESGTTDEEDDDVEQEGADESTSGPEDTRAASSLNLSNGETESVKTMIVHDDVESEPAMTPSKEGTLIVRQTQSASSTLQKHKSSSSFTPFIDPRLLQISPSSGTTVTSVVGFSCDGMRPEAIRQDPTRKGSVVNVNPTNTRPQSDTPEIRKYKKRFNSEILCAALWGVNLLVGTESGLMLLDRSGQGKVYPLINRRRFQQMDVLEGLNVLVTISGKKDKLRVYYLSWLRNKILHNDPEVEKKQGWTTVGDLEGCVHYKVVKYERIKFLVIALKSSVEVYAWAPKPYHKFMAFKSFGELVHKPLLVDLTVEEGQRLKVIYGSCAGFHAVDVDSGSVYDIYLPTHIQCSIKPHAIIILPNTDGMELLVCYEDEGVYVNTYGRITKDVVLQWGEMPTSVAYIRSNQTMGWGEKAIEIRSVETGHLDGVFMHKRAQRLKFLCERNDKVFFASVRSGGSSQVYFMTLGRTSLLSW

Row | effect of a mutation on the interaction | Variant
11 | decreasing interaction strength | MERASLIQKAKLAEQAERYEDMAAFMKGAVEKGEELSCEERNLLSVAYENVVGGQEAAWRVLSSIEQKSNEEGSEEKGPEVREYREKVETELQGVCDTVLGLLDSHLIKEAGDAESRVFYLKMKGDYYRYLAEVATGDDKKRIIDSARSAYQEAMDISKKEMPPTNPIRLGLALNFSDFHYEIANSPEEAISLAKTTFDEAMADLHTLSEDSYKDSTLIMQLLRDNLTLWTADNAGEEGGEAPQEPQS [K49E;R56E;V178D]

Variants of: B1
Settings: with kc1d_human CSNK1D

Row | effect of a mutation on the interaction | Variant
12 | decreasing interaction strength | MERASLIQKAKLAEQAERYEDMAAFMKGAVEKGEELSCEERNLLSVAYENVVGGQEAAWRVLSSIEQKSNEEGSEEKGPEVREYREKVETELQGVCDTVLGLLDSHLIKEAGDAESRVFYLKMKGDYYRYLAEVATGDDKKRIIDSARSAYQEAMDISKKEMPPTNPIRLGLALNFSDFHYEIANSPEEAISLAKTTFDEAMADLHTLSEDSYKDSTLIMQLLRDNLTLWTADNAGEEGGEAPQEPQS [K49E;R56E;V178D]

Variants of: B1
Settings: with ks6a2_human RPS6KA2, Q15349
Sequence of ks6a2_human RPS6KA2, Q15349 (Q15349 whole entry): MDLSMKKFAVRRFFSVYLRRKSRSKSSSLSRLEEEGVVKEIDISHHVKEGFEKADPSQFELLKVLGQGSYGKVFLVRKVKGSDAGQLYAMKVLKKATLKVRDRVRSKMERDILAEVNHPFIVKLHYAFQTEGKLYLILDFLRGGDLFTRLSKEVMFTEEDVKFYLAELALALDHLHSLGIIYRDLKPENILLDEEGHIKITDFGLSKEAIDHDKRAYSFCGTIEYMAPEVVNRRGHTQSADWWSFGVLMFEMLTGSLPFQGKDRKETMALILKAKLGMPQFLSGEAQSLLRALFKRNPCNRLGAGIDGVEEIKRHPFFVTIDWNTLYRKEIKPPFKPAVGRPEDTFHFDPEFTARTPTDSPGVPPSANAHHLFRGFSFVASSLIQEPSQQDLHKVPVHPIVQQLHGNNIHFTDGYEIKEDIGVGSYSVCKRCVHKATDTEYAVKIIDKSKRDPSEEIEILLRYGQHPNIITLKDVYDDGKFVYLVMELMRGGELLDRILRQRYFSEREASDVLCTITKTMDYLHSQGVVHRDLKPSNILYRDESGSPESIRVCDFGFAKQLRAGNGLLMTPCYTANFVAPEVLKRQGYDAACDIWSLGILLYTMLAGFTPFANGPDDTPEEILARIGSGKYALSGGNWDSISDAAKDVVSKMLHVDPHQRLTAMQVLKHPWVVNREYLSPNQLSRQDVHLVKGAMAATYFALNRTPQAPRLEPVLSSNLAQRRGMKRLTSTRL

Row | effect of a mutation on the interaction | Variant
13 | decreasing interaction strength | MERASLIQKAKLAEQAERYEDMAAFMKGAVEKGEELSCEERNLLSVAYENVVGGQEAAWRVLSSIEQKSNEEGSEEKGPEVREYREKVETELQGVCDTVLGLLDSHLIKEAGDAESRVFYLKMKGDYYRYLAEVATGDDKKRIIDSARSAYQEAMDISKKEMPPTNPIRLGLALNFSDFHYEIANSPEEAISLAKTTFDEAMADLHTLSEDSYKDSTLIMQLLRDNLTLWTADNAGEEGGEAPQEPQS [K49E;R56E;V178D]

Variants of: B1
Settings: with alpk1_human ALPK1, Q96QP1
Sequence of alpk1_human ALPK1, Q96QP1 (Q96QP1 whole entry): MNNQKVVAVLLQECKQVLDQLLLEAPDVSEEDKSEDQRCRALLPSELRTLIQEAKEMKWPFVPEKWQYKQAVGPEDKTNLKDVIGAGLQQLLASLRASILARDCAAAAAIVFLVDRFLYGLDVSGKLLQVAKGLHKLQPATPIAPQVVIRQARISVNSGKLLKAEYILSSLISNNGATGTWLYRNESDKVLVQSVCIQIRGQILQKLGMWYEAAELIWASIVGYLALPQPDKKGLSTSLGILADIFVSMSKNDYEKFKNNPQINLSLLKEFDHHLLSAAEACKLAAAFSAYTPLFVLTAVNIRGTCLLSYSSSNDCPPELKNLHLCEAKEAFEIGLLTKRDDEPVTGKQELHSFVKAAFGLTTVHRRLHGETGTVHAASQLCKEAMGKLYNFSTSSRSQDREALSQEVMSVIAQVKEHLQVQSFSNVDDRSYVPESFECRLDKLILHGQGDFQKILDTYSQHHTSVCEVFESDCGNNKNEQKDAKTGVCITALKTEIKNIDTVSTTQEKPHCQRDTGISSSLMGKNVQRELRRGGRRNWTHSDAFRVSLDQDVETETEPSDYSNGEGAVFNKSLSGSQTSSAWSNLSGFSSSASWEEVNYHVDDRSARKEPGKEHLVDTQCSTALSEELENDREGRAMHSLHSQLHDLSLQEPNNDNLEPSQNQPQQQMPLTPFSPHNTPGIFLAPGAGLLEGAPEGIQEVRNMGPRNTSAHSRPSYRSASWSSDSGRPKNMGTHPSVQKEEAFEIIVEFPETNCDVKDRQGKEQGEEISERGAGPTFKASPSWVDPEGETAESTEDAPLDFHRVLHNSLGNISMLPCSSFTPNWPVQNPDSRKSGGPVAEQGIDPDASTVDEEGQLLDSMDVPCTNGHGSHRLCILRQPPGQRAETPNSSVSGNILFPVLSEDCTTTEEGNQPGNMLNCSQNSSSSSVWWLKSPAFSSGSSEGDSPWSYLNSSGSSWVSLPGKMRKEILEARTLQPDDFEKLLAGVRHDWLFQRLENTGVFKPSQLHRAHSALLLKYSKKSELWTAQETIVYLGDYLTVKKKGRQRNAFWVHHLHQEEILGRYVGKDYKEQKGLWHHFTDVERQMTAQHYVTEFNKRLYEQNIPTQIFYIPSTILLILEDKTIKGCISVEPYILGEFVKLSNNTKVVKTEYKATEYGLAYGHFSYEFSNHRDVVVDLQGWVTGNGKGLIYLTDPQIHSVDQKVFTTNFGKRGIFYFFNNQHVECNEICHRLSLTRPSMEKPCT

Row | effect of a mutation on the interaction | Variant
14 | decreasing interaction strength | MERASLIQKAKLAEQAERYEDMAAFMKGAVEKGEELSCEERNLLSVAYENVVGGQEAAWRVLSSIEQKSNEEGSEEKGPEVREYREKVETELQGVCDTVLGLLDSHLIKEAGDAESRVFYLKMKGDYYRYLAEVATGDDKKRIIDSARSAYQEAMDISKKEMPPTNPIRLGLALNFSDFHYEIANSPEEAISLAKTTFDEAMADLHTLSEDSYKDSTLIMQLLRDNLTLWTADNAGEEGGEAPQEPQS [K49E;R56E;V178D]

Variants of: B1
Settings: with kc1e_human CSNK1E

Row | effect of a mutation on the interaction | Variant
15 | decreasing interaction strength | MERASLIQKAKLAEQAERYEDMAAFMKGAVEKGEELSCEERNLLSVAYENVVGGQEAAWRVLSSIEQKSNEEGSEEKGPEVREYREKVETELQGVCDTVLGLLDSHLIKEAGDAESRVFYLKMKGDYYRYLAEVATGDDKKRIIDSARSAYQEAMDISKKEMPPTNPIRLGLALNFSDFHYEIANSPEEAISLAKTTFDEAMADLHTLSEDSYKDSTLIMQLLRDNLTLWTADNAGEEGGEAPQEPQS [K49E;R56E;V178D]
